Results reported in patent US20020111475A1 (IMMUNEX, published 2002).

B1: flt3-L mutant F15L (ligand)
chain: LSGTQDCSFQHSPISSDLAVKIRELSDYLLQDYPVTVASNLQDEELCGGLWRLVLAQRWMERLKTVAGSKMQGLLERVNTEIHFVTKCAFQPPPSCLRFVQTNISRLLQETSEQLVALKPWITRQNFARCLELQCQPDSSTLPPPWSPRPLEATAPTAPQPPLLLLLLLPVGLLLLAAAWCLHWQRTRRRTPRPGEQVPPVPSPQDLLLVEH
B2: flt3-L mutant S13P (ligand)
chain: LSGTQDCSFQHSPISPDFAVKIRELSDYLLQDYPVTVASNLQDEELCGGLWRLVLAQRWMERLKTVAGSKMQGLLERVNTEIHFVTKCAFQPPPSCLRFVQTNISRLLQETSEQLVALKPWITRQNFARCLELQCQPDSSTLPPPWSPRPLEATAPTAPQPPLLLLLLLPVGLLLLAAAWCLHWQRTRRRTPRPGEQVPPVPSPQDLLLVEH
B3: flt3-L mutant F87L (ligand)
chain: LSGTQDCSFQHSPISSDFAVKIRELSDYLLQDYPVTVASNLQDEELCGGLWRLVLAQRWMERLKTVAGSKMQGLLERVNTEIHFVTKCALQPPPSCLRFVQTNISRLLQETSEQLVALKPWITRQNFARCLELQCQPDSSTLPPPWSPRPLEATAPTAPQPPLLLLLLLPVGLLLLAAAWCLHWQRTRRRTPRPGEQVPPVPSPQDLLLVEH
B4: flt3-L mutant P10S (ligand)
chain: LSGTQDCSFQHSSISSDFAVKIRELSDYLLQDYPVTVASNLQDEELCGGLWRLVLAQRWMERLKTVAGSKMQGLLERVNTEIHFVTKCAFQPPPSCLRFVQTNISRLLQETSEQLVALKPWITRQNFARCLELQCQPDSSTLPPPWSPRPLEATAPTAPQPPLLLLLLLPVGLLLLAAAWCLHWQRTRRRTPRPGEQVPPVPSPQDLLLVEH
B5: flt3-L mutant R20C (ligand)
chain: LSGTQDCSFQHSPISSDFAVKICELSDYLLQDYPVTVASNLQDEELCGGLWRLVLAQRWMERLKTVAGSKMQGLLERVNTEIHFVTKCAFQPPPSCLRFVQTNISRLLQETSEQLVALKPWITRQNFARCLELQCQPDSSTLPPPWSPRPLEATAPTAPQPPLLLLLLLPVGLLLLAAAWCLHWQRTRRRTPRPGEQVPPVPSPQDLLLVEH
B6: flt3-L mutant F15Y (ligand)
chain: LSGTQDCSFQHSPISSDYAVKIRELSDYLLQDYPVTVASNLQDEELCGGLWRLVLAQRWMERLKTVAGSKMQGLLERVNTEIHFVTKCAFQPPPSCLRFVQTNISRLLQETSEQLVALKPWITRQNFARCLELQCQPDSSTLPPPWSPRPLEATAPTAPQPPLLLLLLLPVGLLLLAAAWCLHWQRTRRRTPRPGEQVPPVPSPQDLLLVEH
B7: flt3-L mutant A64T (ligand)
chain: LSGTQDCSFQHSPISSDFAVKIRELSDYLLQDYPVTVASNLQDEELCGGLWRLVLAQRWMERLKTVTGSKMQGLLERVNTEIHFVTKCAFQPPPSCLRFVQTNISRLLQETSEQLVALKPWITRQNFARCLELQCQPDSSTLPPPWSPRPLEATAPTAPQPPLLLLLLLPVGLLLLAAAWCLHWQRTRRRTPRPGEQVPPVPSPQDLLLVEH
B8: flt3-L mutant D3G (ligand)
chain: LSGTQGCSFQHSPISSDFAVKIRELSDYLLQDYPVTVASNLQDEELCGGLWRLVLAQRWMERLKTVAGSKMQGLLERVNTEIHFVTKCAFQPPPSCLRFVQTNISRLLQETSEQLVALKPWITRQNFARCLELQCQPDSSTLPPPWSPRPLEATAPTAPQPPLLLLLLLPVGLLLLAAAWCLHWQRTRRRTPRPGEQVPPVPSPQDLLLVEH
B9: flt3-L mutant P90S (ligand)
chain: LSGTQDCSFQHSPISSDFAVKIRELSDYLLQDYPVTVASNLQDEELCGGLWRLVLAQRWMERLKTVAGSKMQGLLERVNTEIHFVTKCAFQPSPSCLRFVQTNISRLLQETSEQLVALKPWITRQNFARCLELQCQPDSSTLPPPWSPRPLEATAPTAPQPPLLLLLLLPVGLLLLAAAWCLHWQRTRRRTPRPGEQVPPVPSPQDLLLVEH
B10: flt3-L mutant V113E (ligand)
chain: LSGTQDCSFQHSPISSDFAVKIRELSDYLLQDYPVTVASNLQDEELCGGLWRLVLAQRWMERLKTVAGSKMQGLLERVNTEIHFVTKCAFQPPPSCLRFVQTNISRLLQETSEQLEALKPWITRQNFARCLELQCQPDSSTLPPPWSPRPLEATAPTAPQPPLLLLLLLPVGLLLLAAAWCLHWQRTRRRTPRPGEQVPPVPSPQDLLLVEH
B11: flt3-L mutant R95C (ligand)
chain: LSGTQDCSFQHSPISSDFAVKIRELSDYLLQDYPVTVASNLQDEELCGGLWRLVLAQRWMERLKTVAGSKMQGLLERVNTEIHFVTKCAFQPPPSCLCFVQTNISRLLQETSEQLVALKPWITRQNFARCLELQCQPDSSTLPPPWSPRPLEATAPTAPQPPLLLLLLLPVGLLLLAAAWCLHWQRTRRRTPRPGEQVPPVPSPQDLLLVEH
B12: flt3-L mutant R55C (ligand)
chain: LSGTQDCSFQHSPISSDFAVKIRELSDYLLQDYPVTVASNLQDEELCGGLWRLVLAQCWMERLKTVAGSKMQGLLERVNTEIHFVTKCAFQPPPSCLRFVQTNISRLLQETSEQLVALKPWITRQNFARCLELQCQPDSSTLPPPWSPRPLEATAPTAPQPPLLLLLLLPVGLLLLAAAWCLHWQRTRRRTPRPGEQVPPVPSPQDLLLVEH
B13: flt3-L mutant F124S (ligand)
chain: LSGTQDCSFQHSPISSDFAVKIRELSDYLLQDYPVTVASNLQDEELCGGLWRLVLAQRWMERLKTVAGSKMQGLLERVNTEIHFVTKCAFQPPPSCLRFVQTNISRLLQETSEQLVALKPWITRQNSARCLELQCQPDSSTLPPPWSPRPLEATAPTAPQPPLLLLLLLPVGLLLLAAAWCLHWQRTRRRTPRPGEQVPPVPSPQDLLLVEH
B14: flt3-L mutant F81L (ligand)
chain: LSGTQDCSFQHSPISSDFAVKIRELSDYLLQDYPVTVASNLQDEELCGGLWRLVLAQRWMERLKTVAGSKMQGLLERVNTEIHLVTKCAFQPPPSCLRFVQTNISRLLQETSEQLVALKPWITRQNFARCLELQCQPDSSTLPPPWSPRPLEATAPTAPQPPLLLLLLLPVGLLLLAAAWCLHWQRTRRRTPRPGEQVPPVPSPQDLLLVEH
B15: flt3-L mutant V75A (ligand)
chain: LSGTQDCSFQHSPISSDFAVKIRELSDYLLQDYPVTVASNLQDEELCGGLWRLVLAQRWMERLKTVAGSKMQGLLERANTEIHFVTKCAFQPPPSCLRFVQTNISRLLQETSEQLVALKPWITRQNFARCLELQCQPDSSTLPPPWSPRPLEATAPTAPQPPLLLLLLLPVGLLLLAAAWCLHWQRTRRRTPRPGEQVPPVPSPQDLLLVEH
B16: flt3-L mutant F124L (ligand)
chain: LSGTQDCSFQHSPISSDFAVKIRELSDYLLQDYPVTVASNLQDEELCGGLWRLVLAQRWMERLKTVAGSKMQGLLERVNTEIHFVTKCAFQPPPSCLRFVQTNISRLLQETSEQLVALKPWITRQNLARCLELQCQPDSSTLPPPWSPRPLEATAPTAPQPPLLLLLLLPVGLLLLAAAWCLHWQRTRRRTPRPGEQVPPVPSPQDLLLVEH
B17: flt3-L mutant S9G (ligand)
chain: LSGTQDCSFQHGPISSDFAVKIRELSDYLLQDYPVTVASNLQDEELCGGLWRLVLAQRWMERLKTVAGSKMQGLLERVNTEIHFVTKCAFQPPPSCLRFVQTNISRLLQETSEQLVALKPWITRQNFARCLELQCQPDSSTLPPPWSPRPLEATAPTAPQPPLLLLLLLPVGLLLLAAAWCLHWQRTRRRTPRPGEQVPPVPSPQDLLLVEH
B18: flt3-L mutant R55L (ligand)
chain: LSGTQDCSFQHSPISSDFAVKIRELSDYLLQDYPVTVASNLQDEELCGGLWRLVLAQLWMERLKTVAGSKMQGLLERVNTEIHFVTKCAFQPPPSCLRFVQTNISRLLQETSEQLVALKPWITRQNFARCLELQCQPDSSTLPPPWSPRPLEATAPTAPQPPLLLLLLLPVGLLLLAAAWCLHWQRTRRRTPRPGEQVPPVPSPQDLLLVEH

The binders below were run against T1, flt3 on murine WWF7 cells (assay: cell-based or functional assay).
T1 sequence (Q00342 whole entry, looked up): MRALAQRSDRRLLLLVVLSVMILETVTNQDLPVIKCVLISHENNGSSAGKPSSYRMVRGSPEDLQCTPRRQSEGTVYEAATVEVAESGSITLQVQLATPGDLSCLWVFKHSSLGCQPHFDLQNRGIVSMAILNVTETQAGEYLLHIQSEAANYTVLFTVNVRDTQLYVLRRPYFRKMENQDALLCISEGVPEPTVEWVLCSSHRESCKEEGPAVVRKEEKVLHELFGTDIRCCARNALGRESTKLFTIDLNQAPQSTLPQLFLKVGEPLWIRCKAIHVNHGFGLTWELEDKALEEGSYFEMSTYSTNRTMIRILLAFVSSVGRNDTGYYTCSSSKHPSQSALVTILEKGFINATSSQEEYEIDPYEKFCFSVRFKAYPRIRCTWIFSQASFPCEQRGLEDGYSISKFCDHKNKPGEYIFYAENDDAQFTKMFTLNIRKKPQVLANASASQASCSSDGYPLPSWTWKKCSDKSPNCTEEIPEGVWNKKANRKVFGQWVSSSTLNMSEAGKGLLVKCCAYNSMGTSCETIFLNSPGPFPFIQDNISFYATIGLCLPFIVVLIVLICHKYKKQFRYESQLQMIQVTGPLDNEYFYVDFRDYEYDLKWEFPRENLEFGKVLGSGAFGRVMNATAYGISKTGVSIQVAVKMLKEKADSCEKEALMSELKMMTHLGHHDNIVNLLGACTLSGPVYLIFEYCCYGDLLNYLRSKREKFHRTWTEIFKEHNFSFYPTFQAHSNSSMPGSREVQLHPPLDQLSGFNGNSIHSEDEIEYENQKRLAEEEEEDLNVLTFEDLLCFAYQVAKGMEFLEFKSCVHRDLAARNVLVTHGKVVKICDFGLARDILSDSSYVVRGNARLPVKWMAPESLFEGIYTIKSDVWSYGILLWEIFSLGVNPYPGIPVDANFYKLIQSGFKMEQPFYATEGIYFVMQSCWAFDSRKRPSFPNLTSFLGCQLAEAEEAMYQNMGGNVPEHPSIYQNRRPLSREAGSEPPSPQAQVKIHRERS
B1 was tested, and the “Sp.Ac. MUT / Sp.Ac. WT (WWF7 cell proliferation units/ml per flt3-L ng/ml by ELISA, yeast supernatant)” value was 0 ratio to wild type.
B2 was tested, and the “Sp.Ac. MUT / Sp.Ac. WT (WWF7 cell proliferation units/ml per flt3-L ng/ml by ELISA, yeast supernatant)” value was 0 ratio to wild type.
With B3 the “Sp.Ac. MUT / Sp.Ac. WT (WWF7 cell proliferation units/ml per flt3-L ng/ml by ELISA, yeast supernatant)” value was 0.01 ratio to wild type.
B4 was tested, and the “Sp.Ac. MUT / Sp.Ac. WT (WWF7 cell proliferation units/ml per flt3-L ng/ml by ELISA, yeast supernatant)” value was 0 ratio to wild type.
B5 was tested, and the “Sp.Ac. MUT / Sp.Ac. WT (WWF7 cell proliferation units/ml per flt3-L ng/ml by ELISA, yeast supernatant)” value was 0.11 ratio to wild type.
For B6, the “Sp.Ac. MUT / Sp.Ac. WT (WWF7 cell proliferation units/ml per flt3-L ng/ml by ELISA, yeast supernatant)” value was 0.19 ratio to wild type.
In the case of B7, the “Sp.Ac. MUT / Sp.Ac. WT (WWF7 cell proliferation units/ml per flt3-L ng/ml by ELISA, yeast supernatant)” value is reported as 0.09 ratio to wild type.
B8 was tested, and the “Sp.Ac. MUT / Sp.Ac. WT (WWF7 cell proliferation units/ml per flt3-L ng/ml by ELISA, yeast supernatant)” value was 0.81 ratio to wild type.
For B9, the “Sp.Ac. MUT / Sp.Ac. WT (WWF7 cell proliferation units/ml per flt3-L ng/ml by ELISA, yeast supernatant)” value was 0.09 ratio to wild type.
For B10, the “Sp.Ac. MUT / Sp.Ac. WT (WWF7 cell proliferation units/ml per flt3-L ng/ml by ELISA, yeast supernatant)” value was 0.8 ratio to wild type.
B11 was tested, and the “Sp.Ac. MUT / Sp.Ac. WT (WWF7 cell proliferation units/ml per flt3-L ng/ml by ELISA, yeast supernatant)” value was 0.26 ratio to wild type.
For B12, the “Sp.Ac. MUT / Sp.Ac. WT (WWF7 cell proliferation units/ml per flt3-L ng/ml by ELISA, yeast supernatant)” value was 0.05 ratio to wild type.
In the case of B13, the “Sp.Ac. MUT / Sp.Ac. WT (WWF7 cell proliferation units/ml per flt3-L ng/ml by ELISA, yeast supernatant)” value is reported as 0 ratio to wild type.
For B14, the “Sp.Ac. MUT / Sp.Ac. WT (WWF7 cell proliferation units/ml per flt3-L ng/ml by ELISA, yeast supernatant)” value was 0.06 ratio to wild type.
B15 was tested, and the “Sp.Ac. MUT / Sp.Ac. WT (WWF7 cell proliferation units/ml per flt3-L ng/ml by ELISA, yeast supernatant)” value was 0.18 ratio to wild type.
In the case of B16, the “Sp.Ac. MUT / Sp.Ac. WT (WWF7 cell proliferation units/ml per flt3-L ng/ml by ELISA, yeast supernatant)” value is reported as 0.22 ratio to wild type.
With B17 the “Sp.Ac. MUT / Sp.Ac. WT (WWF7 cell proliferation units/ml per flt3-L ng/ml by ELISA, yeast supernatant)” value was 0.13 ratio to wild type.
B18 was tested, and the “Sp.Ac. MUT / Sp.Ac. WT (WWF7 cell proliferation units/ml per flt3-L ng/ml by ELISA, yeast supernatant)” value was 0.29 ratio to wild type.
